{"source": "paper PMC7256200", "about": "“Identifying a Molecular Mechanism That Imparts Species-Specific Toxicity to YoeB Toxins” (Frontiers in Microbiology, 2020)", "target": "the molecule itself", "experiment": "SEC-MALS"}
{"protein": "AtYoeB toxin (Atu2017) from Agrobacterium tumefaciens, GST-His tag removed (natural protein, source: E. coli BL21 (DE3), purified (NiNTA, HRV3c PreScission cleavage, Superdex 75); not shown: GST, C-terminal, cleaved) MKLVWTLSSWDDYEFWQRTDARMVEKINDLIRNAKRTPFAGLGKPEPLKGDMAGYWSRRITAEHRFVYRVSGSGSEQRLEVIQCRFHYQ", "values": [{"measurement": "stoichiometry N", "result": 2}]}
